Results published in paper PMC5241874.

B1: αγ heterodimer of human NAD-IDH (IDH3) (Homo sapiens) (protein)
chain 1: TGGVQTVTLIPGDGIGPEISAAVMKIFDAAKAPIQWEERNVTAIQGPGGKWMIPSEAKESMDKNKMGLKGPLKTPIAAGHPSMNLLLRKTFDLYANVRPCVSIEGYKTPYTDVNIVTIRENTEGEYSGIEHVIVDGVVQSIKLITEGASKRIAEFAFEYARNNHRSNVTAVHKANIMRMSDGLFLQKCREVAESCKDIKFNEMYLDTVCLNMVQDPSQFDVLVMPNLYGDILSDLCAGLIGGLGVTPSGNIGANGVAIFESVHGTAPDIAGKDMANPTALLLSAVMMLRHMGLFDHAARIEAACFATIKDGKSLTKDLGGNAKCSDFTEEICRRVKDLD
chain 2: FSEQTIPPSAKYGGRHTVTMIPGDGIGPELMLHVKSVFRHACVPVDFEEVHVSSNADEEDIRNAIMAIRRNRVALKGNIETNHNLPPSHKSRNNILRTSLDLYANVIHCKSLPGVVTRHKDIDILIVRENTEGEYSSLEHESVAGVVESLKIITKAKSLRIAEYAFKLAQESGRKKVTAVHKANIMKLGDGLFLQCCREVAARYPQITFENMIVDNTTMQLVSRPQQFDVMVMPNLYGNIVNNVCAGLVGGPGLVAGANYGHVYAVFETATRNTGKSIANKNIANPTATLLASCMMLDHLKLHSYATSIRKAVLASMDNENMHTPDIGGQGTTSEAIQDVIRHIRVINGRAVEA
notes: alpha and gamma co-expressed in E. coli BL21(DE3) from pQlinkN; gamma C-terminal TEV-His6, His6 cleaved by TEV; 80 kDa heterodimer (dimer of heterodimers at high concentration)
B2: αγ heterodimer of human NAD-IDH (IDH3) (Homo sapiens; P50213:K200A) (protein)
chain 1: TGGVQTVTLIPGDGIGPEISAAVMKIFDAAKAPIQWEERNVTAIQGPGGKWMIPSEAKESMDKNKMGLKGPLKTPIAAGHPSMNLLLRKTFDLYANVRPCVSIEGYKTPYTDVNIVTIRENTEGEYSGIEHVIVDGVVQSIKLITEGASKRIAEFAFEYARNNHRSNVTAVHAANIMRMSDGLFLQKCREVAESCKDIKFNEMYLDTVCLNMVQDPSQFDVLVMPNLYGDILSDLCAGLIGGLGVTPSGNIGANGVAIFESVHGTAPDIAGKDMANPTALLLSAVMMLRHMGLFDHAARIEAACFATIKDGKSLTKDLGGNAKCSDFTEEICRRVKDLD
chain 2: FSEQTIPPSAKYGGRHTVTMIPGDGIGPELMLHVKSVFRHACVPVDFEEVHVSSNADEEDIRNAIMAIRRNRVALKGNIETNHNLPPSHKSRNNILRTSLDLYANVIHCKSLPGVVTRHKDIDILIVRENTEGEYSSLEHESVAGVVESLKIITKAKSLRIAEYAFKLAQESGRKKVTAVHKANIMKLGDGLFLQCCREVAARYPQITFENMIVDNTTMQLVSRPQQFDVMVMPNLYGNIVNNVCAGLVGGPGLVAGANYGHVYAVFETATRNTGKSIANKNIANPTATLLASCMMLDHLKLHSYATSIRKAVLASMDNENMHTPDIGGQGTTSEAIQDVIRHIRVINGRAVEA
notes: as for B1
B3: αγ heterodimer of human NAD-IDH (IDH3) (Homo sapiens; P50213:N202A) (protein)
chain 1: TGGVQTVTLIPGDGIGPEISAAVMKIFDAAKAPIQWEERNVTAIQGPGGKWMIPSEAKESMDKNKMGLKGPLKTPIAAGHPSMNLLLRKTFDLYANVRPCVSIEGYKTPYTDVNIVTIRENTEGEYSGIEHVIVDGVVQSIKLITEGASKRIAEFAFEYARNNHRSNVTAVHKAAIMRMSDGLFLQKCREVAESCKDIKFNEMYLDTVCLNMVQDPSQFDVLVMPNLYGDILSDLCAGLIGGLGVTPSGNIGANGVAIFESVHGTAPDIAGKDMANPTALLLSAVMMLRHMGLFDHAARIEAACFATIKDGKSLTKDLGGNAKCSDFTEEICRRVKDLD
chain 2: FSEQTIPPSAKYGGRHTVTMIPGDGIGPELMLHVKSVFRHACVPVDFEEVHVSSNADEEDIRNAIMAIRRNRVALKGNIETNHNLPPSHKSRNNILRTSLDLYANVIHCKSLPGVVTRHKDIDILIVRENTEGEYSSLEHESVAGVVESLKIITKAKSLRIAEYAFKLAQESGRKKVTAVHKANIMKLGDGLFLQCCREVAARYPQITFENMIVDNTTMQLVSRPQQFDVMVMPNLYGNIVNNVCAGLVGGPGLVAGANYGHVYAVFETATRNTGKSIANKNIANPTATLLASCMMLDHLKLHSYATSIRKAVLASMDNENMHTPDIGGQGTTSEAIQDVIRHIRVINGRAVEA
notes: as for B1

Substrate: O=C(O)CC(C(=O)O)C(O)C(=O)O
Experiment: purified protein
Type: biochemical, Homo sapiens
Conditions: no activators, 2 mM Mn2+, 3.2 mM NAD, 33 mM Tris-acetate pH 7.4, 25 °C, Hill 2.0, racemic DL-ICT varied

| Protein | K0.5 [mM] | kcat/Km [M⁻¹ s⁻¹] | K0.5 (Hill 1.2) [mM] | kcat/Km (Hill 1.2) [M⁻¹ s⁻¹] |
| --- | --- | --- | --- | --- |
| B1 | 4.49 ± 0.15 | 2160 ± 30 | – | – |
| B2 | – | – | 6.38 ± 1.27 | 380 ± 30 |
| B3 | – | – | 5.80 ± 0.84 | 290 ± 10 |
